Patent US20160272995A1, “MANIPULATION OF PLASMODESMAL CONNECTIVITY TO IMPROVE PLANT YIELD AND FITNESS” (UNIVERSITY OF DELAWARE, priority 2013, published 2016)

Experiments:
PDLP5pro:GUS = test: Hormone treatment of PDLP5pro:GUS seedlings, GUS staining of roots; type: in vivo, Arabidopsis thaliana; conditions: 7-day-old seedlings, 9 hours; NAA 100 nM, SA 100 μM, JA 50 μM, ABA 10 μM, 6-BAP 1 μM
From the text: (A) GUS staining of napthalene acetic acid (NAA)-treated roots. Images are tiled and manually aligned. Scale bars, 50 μm. (B) Model for the possible role of PDLP5 during lateral root (LR) emergence. In the wild type (WT) plant, auxin-triggered PDLP5 limits excess diffusion of auxin through PD. This helps regulate the expression timing of genes encoding LAX3 and CWR enzymes in the cortex that positively influence LR emergence. In the plant having a severe knock-down in PDLP5 (pdlp5-1), auxin can diffuse through PD into cortical (and later, epidermal) cells earlier than it should. En, endodermis; Co, cortex; Ep, epidermis This expedites the expression of emergence-promoting genes, accelerating LR emergence.
Concentrations: salicylic acid (SA), 100 μM; JA, 50 μM; ABA, 10 μM; 6-BAP, 1 μM. n=10 per treatment for each line. Representative images are shown. Scale bar, 100 μm.
(§1) To further test that PDLP5pro responds to auxin, we treated 7-day-old PDLP5pro:GUS seedlings with the auxin analog 1-napthalene acetic acid (NAA). […] However, whereas DR5:GUS staining was intensified at the root meristem, exogenous auxin-induced PDLP5pro:GUS expression was again completely excluded from the root tip (FIG. 24).
GUS solution (100 mM sodium phosphate buffer, pH 7.0, 10 mM EDTA, 0.5 mM each potassium ferrocyanide and potassium ferricyanide, 1.24 mM X-Gluc, and 0.1% Triton X-100) was vacuum-infiltrated into plant tissue for five minutes, then removed from vacuum and incubated in 37° C. for 3 to 12 hrs, followed by a series of ethanol washes. Stained tissues were imaged using Zeiss Axioskop 2 microscope. LRP were quantified by counting both the emerged LR and unemerged LR, as determined by DRS::GUS staining of the primordia, under a dissecting microscope (1.2× magnification). LRP stages were determined by examining ethanol-cleared, GUS-stained tissue using 40× water lens.

PDLP5 = test: RT-PCR of PDLP5 transcript in roots after hormone treatment; type: in vivo, Arabidopsis thaliana; conditions: nine-day-old seedlings, 4 hours; 100 μM SA, 5 μM NAA
Method: Relative band intensity was quantified with Image-J and standardized against ubiquitin. Concentrations: 100 μM salicylic acid (SA), 5 μM napthalene acetic acid (NAA). Three biological and two technical repeats were performed.
as §1

Arabidopsis thaliana [1] = test: Root length and secondary root growth of PDLP5-m5 plants; type: in vivo; conditions: compared to wild-type plants
From the text: The sequence of the PCR product was confirmed followed by transformation of Top10 E. coli competent cells. After sequence confirmation, the PDLP5-m5 sequence was transferred from the entry clone pEN-PDLP5-m5 into a binary vector (pGWB) including the constitutive 35S promoter by a Gateway reaction; more particularly, the sequence was cloned into an expression vector under the control of a constitutive 35S promoter to create a pGWB-35S:PDLP5-m5 clone. Agrobacteria were transformed with the pGWB-35S:PDLP5-m5 clone. More particularly, pGWB was introduced into Agrobacteria strain GV3101, and the transformed Agrobacteria were used to transform 4-week-old Arabidopsis thaliana Col-0 plants using floral dipping to produce transgenic plants expressing PDLP5-m5. Transgenic Arabidopsis plants expressing the PDLP5-m5 mutant (pro35S:PDLP5-m5) were made in Col-0 WT and pldp5-1 (severe knockdown) backgrounds.

Arabidopsis thaliana [2] = test: Drought test: 2 weeks water withdrawal, then rewatering; type: in vivo
Method: All plant lines were grown for 2 weeks with water prior to the 2 week water withdrawal. (a) Plants having a severe knock down of PDLP5 (pdlp5-1) and PDLP5-m5 plants bolt faster than plants overexpressing PDLP5 (OX) and wild type (WT) plants. (b) Plants overexpressing PDLP5 (OX) revive 3 days post rewatering (DPR). (c) Plants overexpressing PDLP5 (OX) fully recover and 10 days post rewatering (DPR); wild type (WT) plants are dead, and PDLP5-m5 plants continue to survive.
(a) Plants overexpressing PDLP5 (OX), wild type (WT) plants, plants having a severe knock down of PDLP5 (pdlp5-1), and three different PDLP5-m5 plants (T3-4-2, T2-6, and T2-26) which were all grown a different number of days as required to reach same rosette size before water withdrawal. Plants having the same rosette size are referred to as “same day bolting samples.” (b) Same day bolting samples of plants overexpressing PDLP5 (OX), wild type (WT) plants, plants having a severe knock down of PDLP5 (pdlp5-1), and three different PDLP5-m5 plants (T3-4-2, T2-6, and T2-26) at the end of a 2 week water withdrawal. (c) Same day bolting samples of plants overexpressing PDLP5 (OX) and two different PDLP5-m5 plants (T3-4-2 and T2-26) recover fully 3 days post rewatering.
Transgenic T1 plants were selected on basta+plates and homozygous T2 lines were identified by segregation test on T3 plants. For the drought test, homozygous lines were grown in soil for the 2 weeks with watering followed by 2 weeks of water withdrawal. Tolerance to drought stress of the PDLP5-m5 was assessed by the plant growth or death upon resuming watering.
PDLP5-m5 plants were evaluated by exposing them to drought conditions. PDLP-m5 plants were grown under normal conditions with water, water was withdrawn for 2 weeks, and rewatering was commenced. Plants having a severe knock down of PDLP5 (pdlp5-1) and PDLP5-m5 plants bolt faster than plants overexpressing PDLP5 and wild type plants (FIG. 13A). […] The early bolting of the PDLP5-m5 plants appeared to affect plant revival. Therefore, the experiment was repeated using same day bolting samples. Briefly, plants having the same rosette size were used, regardless of the number of days required to achieve that rosette size (FIG. 14A).

Arabidopsis thaliana [3] = test: Exposure to cold conditions (chilling); type: in vivo; conditions: relative to wild type plants and plants overexpressing PDLP5; 7 weeks at 5° C.
Method: Plants were grown to 2 weeks post germination at 20° C. followed by 7 weeks of culture at 5° C. with 16/8 hours light/darkness.

[4] = system: Nicotiana benthamiana leaves; test: Transient expression via Agrobacteria-infiltration, extent of viral movement; type: in vivo; conditions: transient expression in Nicotiana benthamiana leaves
Method: (a) Schematics of PDLP5-m5, PDLP5-C, and PDLP5-2C mutants as created by overlapping PCR. (b) Transient expression of mutants in Nicotiana benthamiana leaves.
We also created mutants altering just two cysteines (“CC”, residues 288 and 289 of the C-terminal tail region) or a single cysteine (“C”, residue 298 of the C-terminal tail region) residues to A1a. The phenotypes of these partial mutants, as well as the PDLP5-OX, pldp5-1 and PDLP5-m5, were tested in transient expression in Nicotiana benthamiana leaves via Agrobacteria-infiltration, targeting the extent of viral movement for comparison.

Arabidopsis thaliana [5] = test: Vegetative growth, flowering and seed yield of plants; type: in vivo
Method: Wild type (WT) plants, plants overexpressing […]), and plants with a severe knock down of […] used as comparisons. (a) Whole plants at 10, 14, and 18 days post germination (dpg). Plants were grown at 22-20° C. with 50% humidity and with 16/8 hours light/darkness. (b) Leaves at 3 weeks post germination. Plants were grown at 24-22° C. with 70% humidity and with 16/8 hours light/darkness. […] Wild type (WT) plants, plants overexpressing PDLP5 (OX), and plants with a severe knock down of PDLP5 (KO) were used as comparisons. […] Seeds were germinated on plates, were transferred to soil after 1 week, and plants were grown at 22-20° C. with 16/8 hours light/darkness. […] Wild type (WT) plants and plants overexpressing […]) were used as comparisons. Plants were grown at 24-22° C. with 70% humidity and with 16/8 hours light/darkness. […] The sequence of the PCR product was confirmed followed by transformation of Top10 E. coli competent cells. […] Agrobacteria were transformed with the […]5 clone.

Molecule: CC1=CC(=O)CC(C)(C)C1(O)/C=C/C(C)=C\C(=O)O (centres unmarked) [ABA]
- PDLP5pro:GUS expression in roots (PDLP5pro:GUS): did not have any effect

Molecule: CC/C=C\C[C@H]1C(=O)CC[C@@H]1CC(=O)O [JA]
- PDLP5pro:GUS expression in roots (PDLP5pro:GUS): did not have any effect

Molecule: O=C(O)Cc1cccc2ccccc12 [NAA, 1-napthalene acetic acid]
- PDLP5pro:GUS expression in roots (PDLP5pro:GUS): occurred in the cells above the ectopically induced LRP
- PDLP5 transcript level in the roots (RT-PCR) (PDLP5): Induction of PDLP5 at the transcript level

Molecule: O=C(O)c1ccccc1O [SA, salicylic acid]
- PDLP5pro:GUS expression in roots (PDLP5pro:GUS): induces PDLP5pro:GUS expression in roots
- PDLP5 transcript level in the roots (RT-PCR) (PDLP5): Induction of PDLP5 at the transcript level

Molecule: cytokinin
- PDLP5pro:GUS expression in roots (PDLP5pro:GUS): did not have any effect

B1: PDLP5-m5: PDLP5 mutant (SEQ ID NO:6) with three Cysteine→Alanine mutations at 288, 289, 298; expressed in transgenic plants under 35S promoter (protein)
chain: MIKTKTTSLLCFLLTAVILMNPSSSSPTDNYIYAVCSPAKFSPSSGYETNLNSLLSSFVTSTAQTRYANFTVPTGKPEPTVTVYGIYQCRGDLDPTACSTCVSSAVAQVGALCSNSYSGFLQMENCLIRYDNKSFLGVQDKTLILNKCGQPMEFNDQDALTKASDVIGSLGTGDGSYRTGGNGNVQGVAQCSGDLSTSQCQDCLSDAIGRLKSDCGMAQGGYVYLSKCYARFSVGGSHARQTPGPNFGHEGEKGNKDDNGVGKTLAIIIGIVTLIILLVVFLAFVGKAARKLQDEKWAK
modifications: modified PDLP5 protein
notes: expressed in transgenic plants under 35S promoter
- total secondary root growth (Arabidopsis thaliana [1]): increase in total secondary root growth
- increase in root length (Arabidopsis thaliana [1]; 10 days post germination): 30-40%
- outcome upon rewatering (Arabidopsis thaliana [2]; rewatering after 2 weeks water withdrawal): continued to grow upon rewatering
- bolting (Arabidopsis thaliana [2]; versus plants overexpressing PDLP5 and wild type plants): bolt faster
- response to water withdrawal (Arabidopsis thaliana [2]; water withdrawn for 2 weeks): resistant to water withdrawal
- resistance to cold conditions (Arabidopsis thaliana [3]): improved resistance
- extent of viral movement [4]: more extensive viral movement
- rosette diameter (Arabidopsis thaliana [5]; 22-20° C., 16/8 hours light/darkness): relative rosette diameter is maintained
- seed yield (Arabidopsis thaliana [5]; compared to wild type and pdlp5-1): normal to better seed yield
- flowering (Arabidopsis thaliana [5]; compared with WT and PDLP5-OX): early flowering
- vegetative growth (Arabidopsis thaliana [5]; compared with WT, PDLP5-OX, pdlp5-1): fast vegetative growth

B2: PDLP5-CC: PDLP5 mutant altering two cysteines (residues 288 and 289 of the C-terminal tail) to Ala (protein, UniProt Q8GUJ2 26-299, looked up, variant C288A C289A)
Plasmodesmata-located protein …: SPTDNYIYAVCSPAKFSPSSGYETNLNSLLSSFVTSTAQTRYANFTVPTGKPEPTVTVYGIYQCRGDLDPTACSTCVSSAVAQVGALCSNSYSGFLQMENCLIRYDNKSFLGVQDKTLILNKCGQPMEFNDQDALTKASDVIGSLGTGDGSYRTGGNGNVQGVAQCSGDLSTSQCQDCLSDAIGRLKSDCGMAQGGYVYLSKCYARFSVGGSHARQTPGPNFGHEGEKGNKDDNGVGKTLAIIIGIVTLIILLVVFLAFVGKAARKLQDEKWCK
- extent of viral movement [4]: did not show PDLP5-m5 effect

B3: PDLP5-C: PDLP5 mutant altering a single cysteine (residue 298 of the C-terminal tail) to Ala (protein, UniProt Q8GUJ2 26-299, looked up, variant C298A)
Plasmodesmata-located protein …: SPTDNYIYAVCSPAKFSPSSGYETNLNSLLSSFVTSTAQTRYANFTVPTGKPEPTVTVYGIYQCRGDLDPTACSTCVSSAVAQVGALCSNSYSGFLQMENCLIRYDNKSFLGVQDKTLILNKCGQPMEFNDQDALTKASDVIGSLGTGDGSYRTGGNGNVQGVAQCSGDLSTSQCQDCLSDAIGRLKSDCGMAQGGYVYLSKCYARFSVGGSHARQTPGPNFGHEGEKGNKDDNGVGKTLAIIIGIVTLIILLVVFLAFVGKCCRKLQDEKWAK
- extent of viral movement [4]: did not show PDLP5-m5 effect
